This is an account of results in US12534533B2, “Anti-chemokine like receptor 1 humanized antibodies and their therapeutic applications” (OSE IMMUNOTHERAPEUTICS, priority 2019, dated 2026).

The subject of one assay is colitis induced by TNBS. The assay can be described thus: acute inflammatory colitis model induced by TNBS. It counts as in vivo, mice. The following applies: RvE1 1 μg per mouse daily, 2G1 10 μg per mouse; FIG. 3. As to the method: FIG. 3. Effect of an anti-CMKLR1 antibody on a mice acute inflammatory colitis model induced by TNBS. Mice received 200 μL of the haptenating agent TNBS at 5% in 50% ethanol on day 0 and then were injected with isotype control hIgG1 (10 μg per mouse) (x), RvE1 (1 μg per mouse) daily (●), or 2G1 antibody (10 μg per mouse) three times (□) for 5 days, or non-treated (wild type animals) (▴). Mice were sacrificed colon length was measured in each condition.
Colitis was induced in 8-10 weeks-old-C57Bl/6 male mice by intrarectal injection of 200 μL of the haptenating agent TNBS at 5% in 50% ethanol on day 0. Treatments were injected intra-peritoneally; RvE1 (1 μg per mouse) daily for three days, or 2G1 antibody (10 μg per mouse) twice for 3 days. Colitis follow-up consisting of body weight and stool score (0: normal stool; 4: blood in stool) parameters were performed daily (data not represented). When mice are euthanized, colon length representing the pathology severity was measured.

Assay [1] relates to spontaneous colitis in IL-10KO mice. In words: IL10 KO spontaneous chronic inflammatory colitis model. It counts as in vivo. The following applies: vs isotype control. As to the method: FIG. 4. Effect of an anti-CMKLR1 antibody on a IL10 KO mice chronic inflammatory colitis model. Mice KO for IL10 develop a spontaneous inflammatory colitis. They were treated with an Anti-CMKLR1 antibody (2G1) (□) or isotype control (hIgG1) (x) intra-peritoneally (25 μg/injection, 3 times a week). A. Animal weight loss during and after treatment. B. Animal score stool.
IL-10KO mice develop a spontaneous colitis from 20 weeks of age mostly due to the absence of regulatory T cells function through IL-10 secretion in the intestine. IL-10KO mice were followed-up three times a week from 18-week old for their weight loss and stool consistency which are clinical hallmarks of this pathology.

For another assay, the system named is CT26 cells. The assay can be described thus: CT26 colon carcinoma model. It is filed as in vivo, mice. The note with it: 20 μg/injection i.p. for 3 weeks from d4; FIG. 9A-C. As for the experimental part:
FIG. 9. Effect of an anti-CMKLR1 antibody on 2 different colon carcinoma mice models. Two mice models were studied, and animals received isotype control antibody (3G8) (x) or anti-CMKLR1 (2G1) (□) at 20 μg/injection intraperitoneally for 3 weeks. A-C. Results in the CT26 colon carcinoma model comparing single treatment with p84 (A) and 2G1 (B) with combined therapy with both antibodies (C). D: Results in the MC38 colon carcinoma model.
8-week old C57bl/6J male mice were anesthetized with 3% of isoflurane. Mice were shaved on the flank and MC38 cells (0.5·10≢cells/mouse) cell lines were injected subcutaneously with an insulinic syringe (30 Gauges) in 50 μL of PBS. Another model was used, in which 8-week old Balb/c male mice were anesthetized with 3% of isoflurane. Mice were shaved on the flank and CT26 cells (1.10≢cells/mouse) were injected subcutaneously with an insulinic syringe (30 Gauges) in 50 μL of PBS.
The agonistic anti-CMKLR1 antibody (2G1) or an anti-SIRPa antibody (p84-anti-mouse SIRPa from Merck Millipore) (SIRPa is a new checkpoint inhibitor) were injected once a week (20 μg/injection) intraperitoneally for 3 weeks starting at d4 after tumor inoculation alone or combined.

In assay [2] the test system is Akt and Erk phosphorylation in pro-inflammatory (M1) macrophages. The assay can be described thus: Western blot analysis ERK/Akt phosphorylation. It counts as cell-based, mice. The note with it: 2 μg/mL; after 10 to 30 minutes of incubation; FIG. 17. As to the method: FIG. 17. Study of the CMKLR1 pathway activation: Akt and Erk phosphorylation. Western blot analysis of the ERK and AKT activation pathway after 5, 10 and 30 minutes of mice pro-inflammatory (M1) macrophages incubated with 2G1 or RvE1. The Phosphorylated protein Akt or Erk were assessed using P-Akt antibody or P-Erk antibody (p44/42). A. Erk and Akt activation with RvE1. B. Erk and Akt activation with 2G1.
Mice pro-inflammatory macrophages (M1) were generated from bone marrow with M-CSF and polarized with IFN-gamma (IFNg) and LPS. Briefly, bone marrow cells were collected by flushing the femoral bone and cultured with 100 ng/mL of mM-CSF for 5 days and then polarized with 20 ng/mL of IFNg and 100 ng/mL of LPS for 24 h. Then, they were deprived of FBS for 24 hours with RPMI FBS 2% medium. Finally, mice pro-inflammatory macrophages were treated with 2 μg/mL of 2G1 antibody at different times: 5, 10 and 30 minutes. Cells were collected in a RIPA buffer. The protein concentration was measured by a BCA protein kit assay. Proteins were denatured by heating at 95° C. for 5 minutes and diluted in DTT and Laemmli solution. After migration and transfer, the nitrocellulose membrane was blocked with 5% BSA in TBS-T for 2 hours. […] Western blot Images were quantified by Multi Gauge software

Assay [3] deals with chronic colitis after CD45Rbhigh CD4 T cell transfer in Rag1 knock-out mice. The assay can be described thus: CD45Rb high T-cell transfer chronic colitis model. It is filed as in vivo. As to the method:
FIG. 19. Effect of an anti-CMKLR1 antibody in the CD45Rb^high T-cell transfer chronic colitis mouse model. A. Weight variation of treated animals was followed up to sixty days. Animals were treated with isotype control hIgG1 (x) or anti-CMKLR1 antibody (n). B. Histological staining of colon tissue in the mice treated with the anti-CMKLR1 (right) compared to control (left). C. Anatomic pathology scores used to calculate the severity of the pathology and the inflammation (inflammation score, vasculutis score, colon thickness and fibrotic colon wall). D. CD3 and Ly6G infiltration.
Method: CD45Rb^high CD4 T cells were isolated from the spleen of naive mice and sorted on an ARIA FACS after a negative selection of the CD4 T cells by magnetic sorting, then injected intraperitoneally at 0.5·10^6 cells in 100 μL of PBS into 6-weeks old female Rag1 knock-out mice. Anti-CMKLR1 antibody (2G1) or an isotype control were administered from day 32 after the CD45Rb^high CD4 T cell transfer for 3 weeks three times a week at 1 mg/kg. The follow-up of weight was evaluated three times a week and the weight variation was determined over the initial weight. * p<0.05, ** p<0.01.

The test system of assay [4] is neutrophils and macrophages in exudates. The assay can be described thus: in vivo neutrophils apoptosis (sterile air and carrageenan, exudates). As to the method: FIG. 27—in vivo neutrophils apoptosis —A) Experimental proceedings—B) ChemR23 expression C) neutrophils frequency in exudates D) macrophages frequency in exudates G) neutrophils mortality F) Ratio dead/living neutrophils.
Sterile air was injected two times at d3 and d6 and inflammation was initiated with the injection of carrageenan. Exudates were collected at different times and stained for flow cytometry analysis.

B1: 2G1: parental chimeric anti-CMKLR1 antibody: heavy chain variable domain SEQ ID No. 37, light chain variable domain SEQ ID No. 49 (antibody, V domains shown)
VH: EVQLVASGGGLVQPGGSLKLSCAASGFTFSSYGMSWVRQTPDRRLELVATINRYGGSTYYPDSVKGRFTISRDNAKNTLYLQMSSLKSEDTAMYYCPRLIYYGNEGDSWGQGTTLTVSS
VL: QIVLTQSPAIMSASPGEKVTMTCSASSSVSFMHWYQQKSGTSPKRWIYDTTKLTSGVPARFSGSGSGTFYSLTISSMEAEDAATYYCQQWNSKPPLTFGPGTKLELKR
Consider B1, for which the colon length result in the assay on colitis induced by TNBS is “the same as normal animal”. For the same molecule, the “percentage of weight loss” value in assay [1] (25 μg/injection i.p., 3 times a week for 2 weeks, FIG. 4A) is given as “lost less weight”. Also, the score stool result in assay [1] (FIG. 4B) is reported as “better score stool”. In addition, the tumor development entry with CT26 cells is recorded as “did not demonstrate a clinical effect on the tumor development”. Besides, the “activation of Akt and Erk proteins (phosphorylation)” value in assay [2] was “able to induce the activation of both Akt and Erk proteins”. Moreover, in assay [3] (1 mg/kg three times a week for 3 weeks from day 32, vs isotype control, FIG. 19A), the Weight variation entry was “continue to gain weight”. In addition, in assay [3] (FIG. 19C), the “anatomic pathology scores, comprising inflammation scores” value is “lower”. Moreover, in assay [3] (histology, FIG. 19B), the colon tissue thickness entry is given as “decrease of tissue thickness” and the fibrotic tissue result was “decrease of fibrotic tissue”. The “percentage of neutrophils in exudates” value in assay [4] (FIG. 27C) is recorded as “not significantly decreased”. Also, in assay [4] (FIG. 27D), the “overall percentage of macrophages in exudates” value is “slightly enhanced”. Further, the “percentage of dead neutrophils” value in assay [4] (FIG. 27E and FIG. 27F) is “increased”.
